From patent publication US20260266828A1, “BIOMARKERS FOR PREDICTING CANCER TREATMENT EFFICACY” (Arcus Biosciences, Inc., priority 2023, published 2026)

System: CXCL9, CXCL10, CXCL11, IL-12B, IL-18, IL-6, IFNγ, TNFα
Assay: Serum cytokines, Meso Scale Discovery multiplex assays, baseline and C2D1
Format: in vivo, human
Description: Soluble biomarkers were retrospectively analyzed in baseline and on-treatment peripheral blood derived samples obtained from a subset of subjects enrolled in the clinical trial of Example 2. Baseline samples were obtained on day 1 of cycle 1 (CID1), prior to administration of any study drugs. On-treatment samples were obtained on day 1 of cycle 2 (C2D1), prior to administration of study drugs on that day.
Blood collected in serum separator tubes was allowed to clot for 30-60 minutes before centrifugation at 1300 g for 10 minutes to separate the serum. Serum was isolated and stored at −80° C. until cytokine analysis. Serum cytokines were quantified in multiplex assays using the Meso Scale Discovery platform following the manufacturer's protocol. Briefly, plates were coated with biotinylated capture antibodies specific to the analyte of interest bound to linkers specific to unique spots in each well of a 96-well plate. Serum samples, assessed in duplicate, were diluted 8-fold to quantify CXCL9, CXCL10, CXCL11 and IL-18 in a U-plex assay, diluted 10-fold to quantify IL-12B in a U-plex assay, and diluted 5-fold to quantify IFNγ, TNFα and IL-6 in the S-plex assay. Samples were incubated on linker/capture antibody-coated plates, followed by detection with a sulfo-tag-labelled antibody for the U-plex assays and a TURBO-tag-labelled antibody for the S-plex assay. For the S-plex assay, additional steps incorporated in the manufacturer's protocol to amplify signal with enhance solution and detection solution were followed. Following addition of read buffer, the electrochemiluminescent signal was measured on a MESO Sector S 600 instrument. Between each step of the protocol plates were washed with 0.05% Tween-PBS. A standard curve was generated for each plate using a 4-parameter logistic fit with 1/y^2 weighting. Cytokine concentrations in samples were interpolated using the standard curve, allowing quantification of the analyte of interest. Fold change from baseline was calculated as a ratio of the cytokine concentration at C2D1 over the cytokine concentration at baseline. A linear mixed model performed on log transformed raw cytokine values with baseline values as covariates assessed the difference in cytokine levels over time and between treatment groups.

B1: zimberelimab (antibody, chains of the INN, looked up, V domains shown)
VH: QLQLQESGPGLVKPSETLTLTCTVSADSISSTTYYWVWIRQPPGKGLEWIGSISYSGSTYYNPSLKSRVTVSVDTSKNQFSLKLNSVAATDTALYYCARHLGYNGRYLPFDYWGQGTLVTVSS
VL: QSALTQPASVSGSPGQSITISCTGTSSDVGFYNYVSWYQQHPGKAPELMIYDVSNRPSGVSDRFSGSKSGNTASLTISGLQAEDEADYYCSSYTSISTWVFGGGTKLTVL
notes: zimberelimab monotherapy 360 mg IV Q3W; anti-PD-1 antibody
CXCL9, Fold change, median (C2D1 over baseline): 2.4 | CXCL10, Fold change, median (C2D1 over baseline): 1.7 | CXCL11, Fold change, median (C2D1 over baseline): 1.6 | IFNγ, Fold change, median (C2D1 over baseline): 1.6 | IL-6, Fold change, median (C2D1 over baseline): 1.0 | IL-12B, Fold change, median (C2D1 over baseline): 1.5 | IL-18, Fold change, median (C2D1 over baseline): 1.2 | TNFα, Fold change, median (C2D1 over baseline): 1.2 | CXCL9, C2D1, median (day 1 of cycle 2, pre-dose): 621 pg/mL | CXCL10, C2D1, median (day 1 of cycle 2, pre-dose): 639 pg/mL | CXCL11, C2D1, median (day 1 of cycle 2, pre-dose): 172 pg/mL | IFNγ, C2D1, median (day 1 of cycle 2, pre-dose): 1100 fg/mL | IL-6, C2D1, median (day 1 of cycle 2, pre-dose): 14385 fg/mL | IL-12B, C2D1, median (day 1 of cycle 2, pre-dose): 284 pg/mL | IL-18, C2D1, median (day 1 of cycle 2, pre-dose): 779 pg/mL | TNFα, C2D1, median (day 1 of cycle 2, pre-dose): 1336 fg/mL
